Laboratory results published in patent publication US6982082.

Molecular target: modified CypA (S99T, F113G, C115M) (CypAgtm), overexpressed in E. coli and purified (UniProt P62937)
Assay: direct fluorescence binding assay, purified CypAgtm

Kd: 9 nM
Substance: alpha-cyclopentyl, sarcosine11-CsA (CpSar11-CsA) (peptide)
